Results: patent US20220153839A1 (NBE THERAPEUTICS, published 2022)

What was measured:
[1] = biological target: T1, hROR2 (human, UniProt Q01974); assay: flow cytometry on 63-12 / hROR2 cells; anti-His Alexa Fluor 488
T1 construct: full length, on the cell surface; also called 63-12 / hROR2; ROR2 on T47D cells
Protocol: Flow cytometry: Cells were stained using standard flow cytometry methodology. Briefly, for purified anti-ROR1 Fab (FIG. 3), 0.1-1×10⁶ cells were stained with 1000 ng/100 μL of Fab on ice for 1 h. After washing twice with ice-cold flow cytometry buffer (PBS containing 1% (v/v) BSA, 0.1% sodium azide and 1 mM EDTA), the cells were incubated with a 1:1000 dilution of a mouse anti-His tag mAb conjugated to Alexa Fluor 488 (Qiagen) in 100 μL flow cytometry buffer on ice for 30 min. For purified anti-ROR1 IgG1 (FIG. 8), 0.1-1×10⁶ cells were blocked by 4% goat serum for 15 min at room temperature and then incubated with 100 ng/100 μL of IgG on ice for 1 h. After washing twice with ice-cold flow cytometry buffer, cells were stained with a 1:500 dilution of goat anti-human IgG, Fcγ pAbs conjugated to APC (Jackson ImmunoResearch) in 100 μL flow cytometry buffer on ice for 30 min. For commercial goat anti human ROR1 polyclonal antibody (FIG. 8), 0.1-1×10⁶ cells were stained with 200 ng/100 μL of Ab on ice for 1 h. […] Finally, 4′,6-diamidino-2-phenylindole (DAPI) was added to a final concentration of 100 ng/mL to exclude dead cells from the analysis. Cells were analyzed using a FACSCalibur instrument (BD Biosciences) and FlowJo analytical software (Tree Star, Ashland, Oreg.).

[2] = biological target: T2, hFc-mROR1 (extracellular domain of mouse ROR1 fused to the Fc domain of human IgG1) (human; mouse, UniProt Q9Z139 30-406); assay: ELISA; hFc fusion captured by coated anti-human IgG1 Fc; anti-His-HRP; A405
T2 construct: extracellular domain; not shown: Fc domain of human IgG1
T2 sequence (Q9Z139 30-406): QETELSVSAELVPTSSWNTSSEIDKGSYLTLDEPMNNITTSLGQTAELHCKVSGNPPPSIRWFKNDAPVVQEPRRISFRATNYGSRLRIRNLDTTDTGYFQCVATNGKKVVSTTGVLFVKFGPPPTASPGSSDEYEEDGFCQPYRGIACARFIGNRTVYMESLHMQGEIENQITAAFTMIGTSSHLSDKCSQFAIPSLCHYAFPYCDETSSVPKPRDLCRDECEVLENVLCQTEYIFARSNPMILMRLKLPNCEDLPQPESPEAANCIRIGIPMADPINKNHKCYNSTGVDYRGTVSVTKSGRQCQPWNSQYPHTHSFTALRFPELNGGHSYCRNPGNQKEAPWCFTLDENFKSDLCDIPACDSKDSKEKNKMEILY
Protocol: (§1) The binding of each chimeric rabbit/human Fab to hROR1 and mROR1 fused with human IgG1 Fc (hFc-hROR1 and hFc-mROR1) was analyzed by ELISA. hFc-ROR1 or hFc-mROR1 were captured by anti-human IgG1 Fc antibody immobilized on plate and then incubated with hROR1 specific Fabs comprising a His-tag via detection with mouse anti-His tag.
(§2) ELISA: For ELISA (FIG. 2), each well of a 96-well Costar 3690 plate (Corning, Corning, N.Y.) was coated with 100 ng anti-human IgG1 Fc in 25 μL coating buffer (0.1 M Na₂CO₃, 0.1 M NaHCO₃, pH 9.6) for 1 h at 37° C. After blocking with 150 μL 3% (w/v) BSA/TBS for 1 h at 37° C., hFc-hROR1 or hFc-mROR1 was captured following incubation at 100 ng/50 μL for 1 h at 37° C. Then 100 ng/50 μL of Fab was applied in each well at 37° C. 2 h later, 50 μL of a 1:1000 dilution of a mouse anti-His tag mAb conjugated to horse radish peroxidase (HRP) (R&D Systems, Minneapolis, Minn.) in 1% (w/v) BSA/TBS was used to detect the Fab. To determine the epitopes (FIG. 4), hFc fusion proteins containing different domains of hROR1 were coated directly, followed by incubation with Fab before detection by mouse anti-His tag mAb conjugated to HRP. Washing with PBS was repeated and colorimetric detection was performed using 2,2′-azino-bis(3-ethylbenzthiazoline)-6-sulfonic acid (Roche) as substrate according to the manufacturer's directions. The absorbance was measured at 405 nm using a SpectraMax M5 microplate reader (Molecular Devices; Sunnyvale, Calif.) and SoftMax Pro software (Molecular Devices).

[3] = biological target: T3, Ig (human, UniProt Q01973); assay: ELISA on directly coated hFc fusion proteins of hROR1 domains; anti-His-HRP; A405
T3 construct: Ig domain of the extracellular domain; also called hFc-hROR1-Ig
T3 sequence (Q01973 42-147 limits assumed): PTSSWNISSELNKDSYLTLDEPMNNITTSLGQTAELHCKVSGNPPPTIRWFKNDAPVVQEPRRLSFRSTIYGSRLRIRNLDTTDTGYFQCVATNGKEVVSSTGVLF
Protocol: as §2

[4] = biological target: T4, Fr; assay: as above
T4 construct: also called hFc-hROR1-Fr
T4 sequence (chain, as listed by the source limits assumed): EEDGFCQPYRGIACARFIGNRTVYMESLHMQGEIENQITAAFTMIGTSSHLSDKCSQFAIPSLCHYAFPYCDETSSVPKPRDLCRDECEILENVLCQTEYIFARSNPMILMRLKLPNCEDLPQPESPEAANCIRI
Protocol: as §2

[5] = biological target: T5, Kr (human, UniProt Q01973); assay: as above
T5 construct: Kringle domain of the extracellular domain; also called hFc-hROR1-Kr
T5 sequence (Q01973 312-391 limits assumed): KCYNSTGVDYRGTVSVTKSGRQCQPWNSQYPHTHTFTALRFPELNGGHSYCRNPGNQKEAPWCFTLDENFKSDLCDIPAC
Protocol: as §2

[6] = biological target: T6, Fr + Ki (human, UniProt Q01973); assay: as above
T6 construct: Frizzled and Kringle domains of the extracellular domain; also called hFc-hROR1-Fr-Ki
T6 sequence (Q01973 165-391 limits assumed): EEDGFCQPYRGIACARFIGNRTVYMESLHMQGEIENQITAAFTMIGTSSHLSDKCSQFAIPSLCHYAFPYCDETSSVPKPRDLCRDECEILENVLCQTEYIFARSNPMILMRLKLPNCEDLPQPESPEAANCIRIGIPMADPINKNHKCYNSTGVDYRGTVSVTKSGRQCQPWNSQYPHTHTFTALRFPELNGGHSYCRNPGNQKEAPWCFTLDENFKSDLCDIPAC
Protocol: as §2

[7] = biological target: T7, hFc-hROR1 (extracellular domain of human ROR1 fused to the Fc domain of human IgG1) (human, UniProt Q01973 30-406); assay: SPR (Biacore X100); hFc-hROR1 captured by anti-human Fcγ antibody on CM5; Fab as analyte; 1:1 Langmuir fit
T7 construct: extracellular domain; also called hFc-ROR1; not shown: Fc domain of human IgG1
T7 sequence (Q01973 30-406): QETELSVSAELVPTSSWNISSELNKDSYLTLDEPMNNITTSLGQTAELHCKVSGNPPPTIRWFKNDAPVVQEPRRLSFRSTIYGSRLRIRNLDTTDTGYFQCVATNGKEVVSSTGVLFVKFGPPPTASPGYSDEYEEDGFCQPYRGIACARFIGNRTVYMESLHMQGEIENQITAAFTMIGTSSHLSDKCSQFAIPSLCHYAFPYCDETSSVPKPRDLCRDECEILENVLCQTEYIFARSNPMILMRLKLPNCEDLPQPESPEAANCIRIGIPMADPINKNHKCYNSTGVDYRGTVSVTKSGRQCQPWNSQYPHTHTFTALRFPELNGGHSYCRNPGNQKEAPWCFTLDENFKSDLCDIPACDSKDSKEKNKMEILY
Protocol: (A) Shown are Biacore X100 sensorgrams obtained for the binding of each Fab to hFc-hROR1 captured by anti-human Fcγ antibody immobilized on CM5 chip after instantaneous background depletion. Fabs were injected at five different concentrations with the highest concentration indicated in table (B), one of the five concentrations was tested in duplicates. The equilibrium dissociation constant (Kd) was calculated from koff/kₒₙ (kₒₙ, association rate constant; koff, dissociation rate constant).
Surface plasmon resonance: Surface plasmon resonance for the measurement of the affinities of all Fabs to hFc-hROR1 and for epitope mapping studies were performed on a Biacore X100 instrument using Biacore reagents and software (GE Healthcare, Piscataway, N.J.). Anti-Human IgG (Fc) antibody was immobilized on a CM5 sensor chip following the instruction of Human Antibody Capture Kit (GE Healthcare, Piscataway, N.J.). The sensor chip included an empty flow cell for instantaneous background depletion. All binding assays used 1×HBS-EP+ running buffer (10 mM HEPES, 150 mM NaCl, 3 mM EDTA (pH 7.4), and 0.05% (v/v) Surfactant P20) and a flow rate of […]. […] The sensor chip was regenerated with […] from the Human Antibody Capture Kit without any loss of binding capacity. Calculation of association (kₒₙ) and dissociation (koff) rate constants was based on a 1:1 Langmuir binding model. The equilibrium dissociation constant (Kd) was calculated from koff/kₒₙ. For epitope mapping studies, each Fab was prepared at 500 nM alone in 1×HBS-EP+ running buffer and then injected in order as indicated in FIG. 5.

[8] = biological target: T8, hFc-hROR2 (extracellular domain of human ROR2 fused to the Fc domain of human IgG1) (human, UniProt Q01974 34-403); assay: ELISA as for hFc-hROR1; third bar series, keyed 'hFc-hROR1' a second time on the sheet, taken as hFc-hROR2 by legend paragraph 27
T8 construct: extracellular domain; not shown: Fc domain of human IgG1
T8 sequence (Q01974 34-403): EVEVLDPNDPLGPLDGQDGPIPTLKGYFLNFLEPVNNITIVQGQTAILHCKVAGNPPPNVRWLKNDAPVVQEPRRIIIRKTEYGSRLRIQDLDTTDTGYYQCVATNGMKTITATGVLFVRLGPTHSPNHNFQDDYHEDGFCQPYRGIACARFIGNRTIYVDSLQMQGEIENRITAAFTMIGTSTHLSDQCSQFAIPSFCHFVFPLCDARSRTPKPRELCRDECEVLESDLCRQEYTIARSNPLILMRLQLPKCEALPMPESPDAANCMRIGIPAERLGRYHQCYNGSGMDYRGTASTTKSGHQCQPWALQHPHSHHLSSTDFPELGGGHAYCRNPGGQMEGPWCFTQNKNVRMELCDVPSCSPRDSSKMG
Protocol: as §1, §2

T1 sequence (Q01974 34-943 limits assumed): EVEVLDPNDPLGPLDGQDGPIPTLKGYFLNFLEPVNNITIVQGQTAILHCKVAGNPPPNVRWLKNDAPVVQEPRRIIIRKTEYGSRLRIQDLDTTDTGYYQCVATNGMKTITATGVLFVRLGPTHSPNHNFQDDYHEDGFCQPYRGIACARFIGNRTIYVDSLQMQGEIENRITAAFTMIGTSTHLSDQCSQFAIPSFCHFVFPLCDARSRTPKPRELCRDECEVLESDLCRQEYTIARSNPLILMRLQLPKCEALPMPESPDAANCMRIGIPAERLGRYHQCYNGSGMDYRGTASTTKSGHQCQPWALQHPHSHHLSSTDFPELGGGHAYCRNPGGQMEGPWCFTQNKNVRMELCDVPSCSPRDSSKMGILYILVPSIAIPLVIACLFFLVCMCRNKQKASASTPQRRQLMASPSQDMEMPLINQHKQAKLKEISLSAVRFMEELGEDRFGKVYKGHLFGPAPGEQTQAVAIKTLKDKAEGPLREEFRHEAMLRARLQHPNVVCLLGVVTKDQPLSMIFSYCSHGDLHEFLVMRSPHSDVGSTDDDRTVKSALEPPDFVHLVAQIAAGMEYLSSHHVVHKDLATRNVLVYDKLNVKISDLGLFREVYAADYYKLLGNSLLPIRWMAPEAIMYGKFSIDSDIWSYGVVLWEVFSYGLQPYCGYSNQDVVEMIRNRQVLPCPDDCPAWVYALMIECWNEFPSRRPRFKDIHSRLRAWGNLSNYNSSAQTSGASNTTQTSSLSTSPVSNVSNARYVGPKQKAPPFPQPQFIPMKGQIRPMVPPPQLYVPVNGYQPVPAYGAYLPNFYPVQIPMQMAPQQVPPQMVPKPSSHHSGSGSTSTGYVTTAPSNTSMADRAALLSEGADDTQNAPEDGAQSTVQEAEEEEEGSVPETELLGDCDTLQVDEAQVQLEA

B1: ERR1-TOP15 chimeric rabbit/human Fab (Fab, V domains shown)
VH: QEQLVESGGRLVTPGGSLTLTCAASGFSPSSYWMSWVRQAPGKGLEWIGAIYVDSGSAYYASWAKSRFTISKTSSTTVDLKMTSLTTEDTAIYFCARDGWGSDVWGPGTLVTISS
VL: SYELTQLPSVSVSLGQTARITCGGNSIGSKAVHWYQQKPGLAPGLLIYDDDERPSGVPDRFSGSNSGDTATLTISGAQAGDEADYYCQLWDSSAGAYVFGGGTQLTVTG
notes: Chimeric rabbit/human Fab with His tag, expressed in E. coli (pET11a); lambda light chain
binding result [1]: no binding (tested: 1000 ng/100 µL) | binding result [2]: no binding (tested: 100 ng/50 µL) | binding result [3]: no binding | binding result [4]: no binding | binding result [5]: no binding | binding result [6]: no binding | Kd [7]: 139 nM | koff [7]: 0.0654 s⁻¹ | kon [7]: 469000 M⁻¹ s⁻¹ | binding result [8]: no binding (tested: 100 ng/50 µL)

B2: ERR1-TOP43 chimeric rabbit/human Fab (Fab, V domains shown)
VH: QSLEESGGRLVTPGTPLTLTCTVSGFSLSSYWMSWVRQAPGKGLEWIGAIYGSGNTYYASWAKGRFTISKTSTTVDLKITSPTTEDTATYFCARDVHSTATDLWGPGTLVTISS
VL: SYELTQLPSVSVSLGQTARITCGGNNIGSKAVNWYQQKPGLAPGLLIYNDDERPSGVPDRFSGSNSGDTATLTISGAQAGDEADYYCQLWDSSAGAYVFGGGTQLTVTG
notes: as for B1
binding result [1]: no binding (tested: 1000 ng/100 µL) | binding result [2]: no binding (tested: 100 ng/50 µL) | binding result [3]: no binding | binding result [4]: no binding | binding result [5]: no binding | binding result [6]: no binding | Kd [7]: 1.11 nM | koff [7]: 0.000501 s⁻¹ | kon [7]: 451000 M⁻¹ s⁻¹ | binding result [8]: no binding (tested: 100 ng/50 µL)

B3: ERR1-TOP54 chimeric rabbit/human Fab (Fab, V domains shown)
VH: QSLEESGGRLVTPGTPLTLTCTASGFSLSDYYMSWVRQAPGEGLEWIGTIYGGSGNTWYATWAKGRFTISKTSTTVDLKITSPTTEDTATYFCARDFGLSTGGLWGPGTLVTISS
VL: SYELTQLPSVSVSLGQTARITCGGNSIGSKAVNWYQQKPGLAPGLLIYDDDERPSGVPDRFSGSNSGDTATLTISGAQAGDEADYYCQLWDSSARAFVFGGGTQLTVTG
notes: as for B1
binding result [1]: no binding (tested: 1000 ng/100 µL) | binding result [2]: no binding (tested: 100 ng/50 µL) | binding result [4]: no binding | binding result [5]: no binding | binding result [6]: no binding | Kd [7]: 145 nM | koff [7]: 0.0688 s⁻¹ | kon [7]: 475000 M⁻¹ s⁻¹ | binding result [8]: no binding (tested: 100 ng/50 µL)

B4: ERR1-TOP40 chimeric rabbit/human Fab (Fab, V domains shown)
VH: QEQLEESGGRLVTPGTPLTLTCTASGFSLSNYYMSWVRQAPGKGLEYIGIISSSGSTYYASWAKGRFTISKTSSTTVDLKITSPTTEDTATYFCARLYVSDSTANLWGPGTLVTVSS
VL: DIVLTQTPSSTSAAVGGTVTIKCQASQSIDSYLAWYQQKPGQPPKLLIYGASNLASGVPSRFSGSRSGTEYILTISGVQREDAATYYCLGGYPNYFHRTAFGGGTKLEIK
notes: Chimeric rabbit/human Fab with His tag, expressed in E. coli (pET11a); kappa light chain
binding result [4]: no binding | binding result [5]: no binding | binding result [6]: no binding | binding result [8]: no binding (tested: 100 ng/50 µL)

B5: ERR1-324 chimeric rabbit/human Fab (Fab, V domains shown)
VH: QSLEESGGGLVQPGESLTLTCTVSGFSLSRNGMTWVRQAPGKGLEWIGIITSSGDKYYATWAKGRFTISKTSSTTVDLKMTSLTTEDTATYFCARGTVSSDIWGPGTLVTISS
VL: ELVLTQTPSPVSAAVGGTVTINCQASQSVYGNNELAWYQQKPGQPPKLLIYRASILTSGVPSRFKGSGSGTQFTLTISNVQREDAATYYCLGGYVSQSYRAAFGGGTELEIL
notes: as for B4
binding result [4]: no binding | binding result [5]: no binding | binding result [6]: no binding | binding result [8]: no binding (tested: 100 ng/50 µL)

B6: ERR1-306 chimeric rabbit/human Fab (Fab, V domains shown)
VH: QEQLKESGGGLVQPGGSLKLSCKASGFDLSNYGVSWVRQAPGKGLEWIGYIDPTFDYTYYASWVNGRFSISRENTQNTVSLQINSLTPADTATYFCARWVYGVDDYGDGNWLDLWGQGTLVTISS
VL: QFVLTQSPSVSAALGASAKLTCTLSSAHKTYTIDWYQQQQGEAPRYLMELKSDGSYTKGTGVPDRFSGSSSGADRYLIIPSVQADDEADYYCGTDYSGGYVFGGGTQLTVTG
notes: as for B1
binding result [1]: no binding (tested: 1000 ng/100 µL) | binding result [3]: no binding | binding result [4]: no binding | binding result [5]: no binding | binding result [6]: no binding | binding result [8]: no binding (tested: 100 ng/50 µL)

B7: XBR1-402 chimeric rabbit/human Fab (Fab, V domains shown)
VH: QEQQKESGGGLFKPTDTLTLTCTASGFDISSYYMSWVRQAPGNGLEWIGAIGISGNAYYASWAKSRSTITRNTNLNTVTLKMTSLTAADTATYFCARDHPTYGMDLWGPGTLVTVSS
VL: SYELTQLPSVSVSLGQTARITCEGNNIGSKAVHWYQQKPGLAPGLLIYDDDERPSGVPDRFSGSNSGDTATLTISGAQAGDEADYYCQVWDSSAYVFGGGTQLTVTG
notes: Chimeric rabbit/human Fab with His tag, expressed in E. coli (pC3C-His); lambda light chain
binding result [1]: no binding (tested: 1000 ng/100 µL) | binding result [2]: no binding (tested: 100 ng/50 µL) | binding result [3]: no binding | binding result [5]: no binding | binding result [6]: no binding | Kd [7]: 5.81 nM | koff [7]: 0.00643 s⁻¹ | kon [7]: 1.11e+06 M⁻¹ s⁻¹ | binding result [8]: no binding (tested: 100 ng/50 µL)
